In US20150148405A1, “Expression Construct for a Lin28-Resistant Let-7 Precursor MicroRNA” (THE JOHNS HOPKINS UNIVERSITY, priority 2012, published 2015):

What was measured:
[1] = tested on: GW182; assay: Immunopurification of GW182: associated RNA, mRNAs and proteins; type: cell-based, mouse
Procedure: Proteins and mRNAs associated with P-body component GW182 were isolated through immunoprecipitation of GW182 by modification of previously published protocols (Keene et al., 2006; Moser et al., 2009). Primary cultures of mouse hippocampal neurons (DIV 14-15) were incubated in serum-reduced medium (0.5% B27 supplement) for 2 hours, followed by […] Actinomycin-D for […] and mock or BDNF-stimulation for 30˜60 min. Cell lysates were harvested in polysomal lysis buffer (100 mM KCl, 5 mM MgCl2, 10 mM HEPES pH 7.0, 0.5% NP-40) with protease inhibitor cocktail and freshly added 20 mM EDTA, 1 mM DTT, 100 U/mL RNase inhibitor (RNaseOut, Invitrogen) and 400 μM Vanadyl ribonucleoside complexes (SIGMA). Lysates were centrifuged and the supernatants pre-cleared by one-hour incubation with recombinant protein G beads pre-washed in NT2 buffer (50 mM Tris-HCl pH 7.4, 150 mM NaCl, 1 mM MgCl2, 0.05% NP-40). Antibody coating of protein G beads was carried out with antiserum against GW182 (18033, gift of M. Fritzler) or control isotype-specific serum in NT2 buffer plus protease inhibitor for 4 hours after blocking with NT2 buffer plus 5% BSA and 1 mg/mL heparin for 1 hour. For immunoprecipitation (IP), equal amounts of lysate protein (2-5 mg) was incubated with antibody-coated beads and tumbled for 4 hours at 4° C., followed by washing. RNAs were recovered from GW182 immunoprecipitates by Tri-Reagent as described below. Recovered RNAs were resuspended in nuclease-free water, measured for RNA concentration, and immediately reverse transcribed into cDNA using a combination of random decamers and oligo(dT) primers. RT-qPCR was carried out as described below. To examine proteins co-immunoprecipitated with GW182, the washed IP beads were incubated in sample buffer at 95° C. for 5 minutes and subjected to SDS-PAGE electrophoresis and immunoblotting.

[2] = tested on: Let-7 miRNA binding sites; assay: Let-7 luciferase reporter assay; type: cell-based, mouse; details: BDNF 4 hr, transcription blockade; control reporters unchanged
From the text: Let-7 luciferase reporters (gift of G. Hannon) harbor a wildtype or a mutant Let-7 miRNA binding site. The Let-7 miRNA binding sites are derived from a short 3′UTR segment of C. elegans Lin41 mRNA containing two adjacent proven Let-7 miRNA biding sites and are cloned into 3′UTR of firefly luciferase in a pcDNA backbone. Mutations in seed regions of both Let-7 binding sites were made for a negative control reporter, which was documented not regulated by endogenous Let-7 miRNAs. Co-transfection of the pCSK-lacZ vector, which constitutively expresses β-galactosidase and is not regulated by shRNA, served to normalize transfection efficiency and extract recovery for each sample in all reporter assays. The DNA amounts used for each well (24 well plate) were 15 ng of any luciferase reporter, 85 ng of β-gal (CSK-LacZ), and/or 75-300 ng of CXCR4 shRNA. Each reporter experiment included extracts from cells transfected with pcDNA3.1 alone as a reference control. […] Cell lysates were collected in 1×lysis buffer (reporter lysis buffer, Promega), and luciferase (Promega) and chemiluminescent β-gal (Roche) reporter assays carried out according to manufacturer instructions using a plate-reading luminometer (Perkin Elmer). […] When required, fold change was calculated by dividing normalized stimulated samples by normalized unstimulated samples.

luciferase reporter containing Let-7 binding sites [2]: significantly induced
B1: BDNF: brain-derived neurotrophic factor, a neurotrophin used to stimulate hippocampal neurons (protein, UniProt P23560 19-247, looked up)
Neurotrophic factor BDNF …: APMKEANIRGQGGLAYPGVRTHGTLESVNGPKAGSRGLTSLADTFEHVIEELLDEDQKVRPNEENNKDADLYTSRVMLSSQVPLEPPLLFLLEEYKNYLDAANMSMRVRRHSDPARRGELSVCDSISEWVTAADKKTAVDMSGGTVTVLEKVPVSKGQLKQYFYETKCNPMGYTKEGCRGIDKRHWNSQCRTTQSYVRALTMDSKKRIGWRFIRIDTSCVCTLTIKRGR
association of P-body components Ago2 and Dcp1a with GW182 ([1]; co-immunoprecipitation, BDNF 1 hour): increased the association
GW182-association of mRNAs whose translation is downregulated by BDNF (KCC2, Kv1.1) ([1]; control shRNA conditions): promoted the GW182-association
GW182-association of mRNAs whose translation is upregulated by BDNF (GluR1, CaMKIIu, Homer2) ([1]; control shRNA conditions): reduced the GW182-association
